Assay results taken from the Immune Epitope Database (IEDB).
One block for each sequence: values may come before it.

Legend:
[1] = target: HLA-A*02:01; test: IEDB peptide-MHC binding, purified MHC/competitive/radioactivity; filed as Kd, often an IC50 or EC50 that approximates it; ≥ and ≤ were set here for values at or beyond the usual limits of such assays
[2] = target: HLA-A*02:02; test: as above
[3] = target: HLA-A*02:03; test: as above
[4] = target: HLA-A*02:06; test: as above
[5] = target: HLA-A*03:01; test: as above
[6] = target: HLA-A*11:01; test: as above
[7] = target: HLA-A*31:01; test: as above
[8] = target: HLA-A*33:01; test: as above
[9] = target: HLA-A*68:01; test: as above
[10] = target: HLA-A*68:02; test: as above
[11] = target: HLA-B*07:02; test: as above
[12] = target: HLA-B*08:01; test: as above; settings: source organism: Hepatitis C virus (isolate 1)
[13] = target: HLA-B*18:01; test: as above; settings: source organism: Hepatitis C virus (isolate 1)
[14] = target: HLA-B*35:01; test: as above
[15] = target: HLA-B*40:01; test: as above; settings: source organism: Hepatitis C virus (isolate 1)
[16] = target: HLA-B*40:02; test: as above; settings: source organism: Hepatitis C virus (isolate 1)
[17] = target: HLA-B*44:02; test: as above; settings: source organism: Hepatitis C virus (isolate 1)
[18] = target: HLA-B*44:03; test: as above; settings: source organism: Hepatitis C virus (isolate 1)
[19] = target: HLA-B*51:01; test: as above
[20] = target: HLA-B*53:01; test: as above
[21] = target: HLA-B*54:01; test: as above
[22] = target: HLA-B*27:05; test: IEDB peptide-MHC binding, purified MHC/direct/fluorescence; filed as Kd, often an IC50 or EC50 that approximates it; ≥ and ≤ were set here for values at or beyond the usual limits of such assays; settings: source organism: Reston ebolavirus - Reston
[23] = target: HLA-A*02:01; test: IEDB peptide-MHC binding, purified MHC/competitive/fluorescence; filed as Kd, often an IC50 or EC50 that approximates it; ≥ and ≤ were set here for values at or beyond the usual limits of such assays
[24] = target: HLA-A*26:01; test: as above
[25] = target: HLA-A*69:01; test: as above
[26] = target: HLA-B*15:01; test: as above
[27] = target: HLA-B*15:17; test: as above
[28] = target: HLA-B*18:01; test: as above
[29] = target: HLA-B*39:01; test: as above
[30] = target: HLA-B*46:01; test: as above
[31] = target: HLA-B*51:01; test: as above
[32] = target: HLA-B*57:01; test: as above
[33] = target: HLA-A*03:01; test: as above
[34] = target: HLA-A*11:01; test: IEDB peptide-MHC binding, purified MHC/competitive/fluorescence; ≥ and ≤ were set here for values at or beyond the usual limits of such assays
[35] = target: HLA-A*02:01; test: IEDB peptide-MHC binding, purified MHC/direct/fluorescence; filed as Kd, often an IC50 or EC50 that approximates it; ≥ and ≤ were set here for values at or beyond the usual limits of such assays; settings: source organism: Ebola virus - Mayinga, Zaire, 1976
[36] = target: HLA-A*02:12; test: as above; settings: source organism: Ravn virus - Ravn, Kenya, 1987
[37] = target: HLA-A*69:01; test: as above; settings: source organism: Ebola virus - Mayinga, Zaire, 1976
[38] = target: HLA-B*18:01; test: as above; settings: source organism: Influenza A virus (A/camel/Mongolia/1982(H1N1))
[39] = target: HLA-B*40:01; test: as above; settings: source organism: Influenza A virus (A/camel/Mongolia/1982(H1N1))
[40] = target: HLA-B*44:02; test: as above; settings: source organism: Influenza A virus (A/camel/Mongolia/1982(H1N1))
[41] = target: HLA-B*27:03; test: IEDB peptide-MHC binding, purified MHC/competitive/fluorescence; filed as Kd, often an IC50 or EC50 that approximates it; ≥ and ≤ were set here for values at or beyond the usual limits of such assays; settings: source organism: Homo sapiens
[42] = source organism: Hepatitis C virus (isolate 1)
[43] = source organism: Reston ebolavirus - Reston (1989)
[44] = source organism: Vaccinia virus WR

Sequence: ATDALMTGY
Kd [1, 42]: 1.45 µM
Kd [2, 42]: 1.58 µM
Kd [3, 42]: 5.92 µM
Kd [4, 42]: 5.65 µM
Kd [5, 42]: 3.32 µM
Kd [6, 42]: 0.0196 µM
Kd [7, 42]: ≥ 72.3 µM
Kd [8, 42]: ≥ 77.7 µM
Kd [9, 42]: ≥ 77.7 µM
Kd [10, 42]: ≥ 69.8 µM
Kd [11, 42]: ≥ 32.9 µM
Kd [12]: ≥ 64.7 µM
Kd [13]: ≥ 77.5 µM
Kd [14, 42]: ≥ 36.4 µM
Kd [15]: ≥ 76.2 µM
Kd [16]: ≥ 77.3 µM
Kd [17]: ≥ 78 µM
Kd [18]: ≥ 78.2 µM
Kd [19, 42]: ≥ 77.5 µM
Kd [20, 42]: ≥ 78.2 µM
Kd [21, 42]: ≥ 63.1 µM

Sequence: GRYNLVPPK
Kd [22]: 0.0976 µM
Kd [23, 43]: ≥ 20 µM
Kd [24, 43]: ≥ 20 µM
Kd [25, 43]: ≥ 20 µM
Kd [26, 43]: ≥ 20 µM
Kd [27, 43]: ≥ 20 µM
Kd [28, 43]: ≥ 20 µM
Kd [29, 43]: ≥ 20 µM
Kd [30, 43]: ≥ 20 µM
Kd [31, 43]: ≥ 20 µM
Kd [32, 43]: ≥ 20 µM

Sequence: IPYLRNYMVI
Kd [1, 44]: ≥ 69.4 µM
Kd [2, 44]: ≥ 70 µM
Kd [3, 44]: ≥ 70.4 µM
Kd [4, 44]: ≥ 69.8 µM
Kd [5, 44]: 0.158 µM
Kd [6, 44]: 1.02 µM
Kd [7, 44]: ≥ 37 µM
Kd [8, 44]: 15.5 µM
Kd [9, 44]: ≥ 21.4 µM
Kd [10, 44]: 15.5 µM
Kd [11, 44]: 0.323 µM
Kd [14, 44]: ≥ 43.9 µM
Kd [19, 44]: ≥ 25 µM
Kd [20, 44]: 0.895 µM
Kd [21, 44]: 0.829 µM

Sequence: ISIIVLFQR
Kd [1, 44]: 2.4 µM
Kd [2, 44]: 6.72 µM
Kd [3, 44]: 9.05 µM
Kd [4, 44]: 9.07 µM
Kd [5, 44]: 0.689 µM
Kd [6, 44]: 0.93 µM
Kd [7, 44]: 0.00112 µM
Kd [8, 44]: 0.252 µM
Kd [9, 44]: 0.00326 µM
Kd [10, 44]: 8.93 µM
Kd [11, 44]: 2.22 µM
Kd [14, 44]: ≥ 43.4 µM
Kd [19, 44]: ≥ 21 µM
Kd [20, 44]: ≥ 21.5 µM
Kd [21, 44]: 7.68 µM

Kd ([33]; source organism: Escherichia coli str. K-12 substr. MG1655): 0.116 µM
Sequence: KIEAPLLLH

Sequence: KQYIVATLMK
Kd [1, 44]: 11.2 µM
Kd [2, 44]: 10.6 µM
Kd [3, 44]: 9.86 µM
Kd [4, 44]: 11.4 µM
Kd [5, 44]: 0.0056 µM
Kd [6, 44]: 0.00378 µM
Kd [7, 44]: 0.00824 µM
Kd [8, 44]: 1.15 µM
Kd [9, 44]: 1.34 µM
Kd [10, 44]: ≥ 49 µM
Kd [11, 44]: ≥ 69.6 µM
Kd [14, 44]: 18.7 µM
Kd [19, 44]: ≥ 35 µM
Kd [20, 44]: ≥ 69.9 µM
Kd [21, 44]: 13.7 µM

Sequence: LGLDDQEKK
IC50 ([34]; source organism: Zaire ebolavirus): 30.7 µM

Sequence: LLADGLAKA
Kd [35]: 0.0257 µM
Kd [36]: 0.004 µM
Kd [37]: 0.848 µM

Sequence: MEYDAVATT
Kd [38]: ≤ 0.001 µM
Kd [39]: 0.707 µM
Kd [40]: ≥ 20 µM

Sequence: NCYNLEIKK
IC50 ([34]; source organism: Sudan ebolavirus): ≥ 72.4 µM

Sequence: RLCRFRKSK
Kd ([33]; source organism: Yersinia pestis Nepal516): 0.121 µM

Sequence: TPNYMKLLVY
Kd [11, 44]: ≥ 47.8 µM
Kd [14, 44]: 0.0481 µM
Kd [19, 44]: ≥ 28.6 µM
Kd [20, 44]: 0.952 µM
Kd [21, 44]: 14.6 µM

Sequence: WPNNCGWKIY
Kd [11, 44]: ≥ 22.8 µM
Kd [14, 44]: 0.593 µM
Kd [19, 44]: ≥ 69.6 µM
Kd [20, 44]: 5.57 µM
Kd [21, 44]: 1.14 µM

Sequence: YPTNDIPSLF
Kd [11, 44]: 1.97 µM
Kd [14, 44]: 0.00863 µM
Kd [19, 44]: 4.27 µM
Kd [20, 44]: 0.00767 µM
Kd [21, 44]: 0.473 µM

Kd ([23]; source organism: Homo sapiens): ≥ 20 µM
Kd ([24]; source organism: Homo sapiens): ≥ 20 µM
Kd ([25]; source organism: Homo sapiens): ≥ 20 µM
Kd ([26]; source organism: Homo sapiens): ≥ 20 µM
Kd ([27]; source organism: Homo sapiens): ≥ 20 µM
Kd ([28]; source organism: Homo sapiens): ≥ 20 µM
Kd [41]: ≥ 20 µM
Kd ([29]; source organism: Homo sapiens): ≥ 20 µM
Kd ([30]; source organism: Homo sapiens): ≥ 20 µM
Kd ([31]; source organism: Homo sapiens): ≥ 20 µM
Kd ([32]; source organism: Homo sapiens): ≥ 20 µM
Sequence: YSDNEMLTH
